The test system of data set [1] is Sprague–Dawley rats. The note with it: rat, in vivo, ip, 6 mg/kg.
Protocol: In this set of experiments, rats were treated with the highly emetogenic chemotherapeutic agent, cisplatin. Using this gold-standard preclinical model of CINV, we first determined the effects of a single systemic dose of GRASP administered shortly before cisplatin.
Adult male Sprague–Dawley rats (Charles River) weighing ∼250–270 g on arrival (N = 158) were housed under a 12 h:12 h light/dark cycle in a temperature- and humidity-controlled vivarium (23 ± 1 °C). Animals were fed ad libitum with a standard chow diet (Purina LabDiet 5001) with ad libitum access to tap water and kaolin pellets (Research Diets, K50001) for at least 5 days before the start of the experiment. All animals were naïve to experimental drugs and test treatments before the beginning of the experiment. Rats were habituated in single-hanging wire cages and received saline IP injections every day for 1 week before the onset of the experiment. […]
Using a similar paradigm, the impact of GRASP on cisplatin-induced nausea and anorexia was assessed. […] Food intake and kaolin consumption were measured at 3, 6, and 24 h postinjection.
Food intake and kaolin consumption were analyzed using repeated measures 2 × 3 ANOVAs, 2 × 2 ANOVAs, or one-way ANOVAs followed by Tukey’s post hoc tests. All data were expressed as means ± SEM. […] All data were analyzed using Prism 9 GraphPad Software (San Diego, California).
For data set [2], the target named is purified human GFRAL extracellular domain (ECD). The note with it: untagged GDF15, purified human GFRAL ECD, SPR and flow cytometry, ref 6 (Yang et al.), read-out: reported KD of GDF15 for human GFRAL, cited from earlier work. How it is done: Peptide binding to a segment of recombinant human GFRAL containing the complete known binding domain of GDF15 and the remaining extracellular domain (S19–E351) of the receptor as defined by UniProt (Q6UXV0) was evaluated by SPR (Figure 1). Initial screening aimed to confirm GFRAL immobilization and system functionality by evaluating the dose–response profile to a commercial formulation of HEK293 cell-derived recombinant human GDF15. […] GRASPCy5 binding was evaluated by flow cytometry and compared with results from untransfected HEK293 cells.
Background: A flow cytometer gives signals particle by particle.

Data set [3] deals with T1, recombinant human GFRAL (S19–E351) (Homo sapiens, UniProt Q6UXV0).
T1 construct: contained a truncated Ser19–Glu351 domain was used for all SPR experiments; His; purchased ACRO Biosystems GFA-H52H3; host or cells: HEK293 cells
T1 sequence (Q6UXV0 19-351): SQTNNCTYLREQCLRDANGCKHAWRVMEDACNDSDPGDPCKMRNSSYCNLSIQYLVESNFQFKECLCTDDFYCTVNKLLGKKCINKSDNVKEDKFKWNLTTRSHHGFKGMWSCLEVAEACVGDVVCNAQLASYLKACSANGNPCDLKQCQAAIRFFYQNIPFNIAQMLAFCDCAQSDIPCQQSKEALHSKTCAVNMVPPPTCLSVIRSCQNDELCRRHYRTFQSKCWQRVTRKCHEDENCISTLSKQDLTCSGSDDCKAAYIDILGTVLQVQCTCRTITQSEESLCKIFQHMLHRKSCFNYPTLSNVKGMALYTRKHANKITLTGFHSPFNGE
The experiment in a line: SPR, high-capacity carboxyl sensor with immobilised GFRAL, peptide or GDF15 as analyte. The note with it: HEK293-derived recombinant human GDF15, TraceDrawer kinetic evaluation, read-out: binding affinity (KD) of GDF15 control to GFRAL. How it is done: Peptide binding to a segment of recombinant human GFRAL containing the complete known binding domain of GDF15 and the remaining extracellular domain (S19–E351) of the receptor as defined by UniProt (Q6UXV0) was evaluated by SPR (Figure 1). Initial screening aimed to confirm GFRAL immobilization and system functionality by evaluating the dose–response profile to a commercial formulation of HEK293 cell-derived recombinant human GDF15. […] For example, Yang et al.[6] reported a KD of ∼1 nM for the interaction between untagged GDF15 and purified human GFRAL extracellular domain (ECD) and binding of GDF15 to HEK293 transfectants expressing human GFRAL-EDC (Ser19–Glu351) and GDF15 via SPR and flow cytometry, respectively.
The binding of each peptide to the ECD of GFRAL was initially confirmed from the results of carboxyl-sensor SPR (SI, Figure S9) with bound GFRAL–ECD. A broad range of binding affinities (KD values ranging from […]) was observed. […] We hypothesized this may be due to obstruction of the binding site of GFRAL–ECD in its immobilized state. Thus, we opted for a different SPR approach in which we conjugated GRASP to biotin and immobilized the peptide to the sensor surface, this time via biotin–streptavidin affinity. Increasing concentrations of GFRAL–ECD were then evaluated as the mobile phase against the immobilized GRASP. […]
(In SPR one partner is held on a chip, and binding of the other changes the refractive index at the surface.)

The test system of data set [4] is Sprague–Dawley rats. The experiment in a line: GDF15-induced anorexia and pica (kaolin intake) in rats. Format: in vivo, rat. The text has this: In initial experiments, we examined whether central administration of GRASP (i.e., directly into the fourth ventricle or fourth ICV) would counteract the effects of centrally delivered GDF15 in rats. Because the AP/NTS is located on the dorsal surface of the hindbrain at the caudal end of the fourth ventricle, this route of administration facilitates targeted and selective drug delivery near the sites of GFRAL expression. To assess the impact of these interventions, we measured pica behavior, i.e., the ingestion of non-nutritive substances such as kaolin,[29] as this represents an accurate and reliable proxy for malaise in rats and has been used to examine the effects of agents known to cause nausea in humans.[29]−[31]
To increase the translational impact of this study and more closely mimic a potential clinical scenario, we conducted a dose–response study in which both GRASP and GDF15 were administered systemically to rats via the intraperitoneal (IP) route.
All systemic treatments were delivered by intraperitoneal (IP) injection.
To evaluate the impact of GRASP on GDF15-induced anorexia and nausea (proxied by kaolin ingestion) in rats (n = 10, 400–450 g), GRASP (300 and 3000 pmol), or vehicle control was administered centrally immediately before intraventricular infusion of GDF15 (30 pmol). […]
All data were expressed as means ± SEM.

Data set [5] has as its target T2, Recombinant His-tagged human GFRAL (Ser19–Glu351) (human, UniProt Q6UXV0 19-351).
T2 construct: GDNF family receptor alpha-like (GFRAL), human, extracellular domain S19-E351 as defined by UniProt Q6UXV0; also called GFRAL–ECD; GFRAL (S19–E351); source: bought: ACRO Biosystems (GFA-H52H3), expressed in HEK293 cells
T2 sequence (looked up): T1 sequence (Q6UXV0 19-351)
The experiment in a line: SPR; GFRAL (S19-E351) immobilised by amine coupling (EDC/NHS) on a high-capacity carboxyl sensor (Nicoya OpenSPR); peptides or GDF15 as analyte; HBSS pH 7.4 running buffer without BSA; 20 uL/min. The note with it: both partners purified.

Where two headings read alike, the source gives them in different places.

As to “cis-diammineplatinum dichloride [cisplatin]”, in the data set with Sprague–Dawley rats [1], the “kaolin consumption and anorexia induced by cisplatin” value is “leads to significant kaolin consumption and anorexia”.

B1: Recombinant human growth differentiation factor 15 (GDF15) (ligand, UniProt Q99988 195-308, looked up)
chain: ARARNGDHCPLGPGRCCRLHTVRASLEDLGWADWVLSPREVQVTMCIGACPSQFRAANMHAQIKTSLHRLKPDTVPAPCCVPASYNPMVLIQKTDTGVSLQTYDDLLAKDCHCI
notes: Growth differentiation factor 15, human, HEK293-derived commercial recombinant protein; commercial GDF15 is commonly the mature C-terminal cytokine (a disulfide-linked dimer), so the limits should be checked with the supplier; source: bought: Abcam (ab302451), expressed in HEK293 cells
A word on the Kd: it is the free concentration of one partner at which half of the binding sites on the other are occupied at equilibrium, for simple one-to-one binding. B1: the Kd in data set [2] (listed as native ligand) is 1 nM; in data set [2], about 1 nM; in data set [3] it was 6 nM; in data set [5], 6.02 nM. In addition, in the data set on Sprague–Dawley rats [4] (GDF15 30 pmol central administration, vs vehicle), the “kaolin consumption and anorexia induced by GDF15, central” value was “induced significant kaolin consumption and anorexia”. In the data set on Sprague–Dawley rats [4] (GDF15 20 μg/kg IP), the “kaolin consumption and anorexia induced by GDF15, systemic” value is “reliably induced kaolin consumption and modest, albeit statistically significant anorexia”.

The record behind these values is article PMC10461225, “Creation of a Peptide Antagonist of the GFRAL–RET Receptor Complex for the Treatment of GDF15-Induced Malaise” (Journal of Medicinal Chemistry, 2023).
